According to the supplement of paper PMC11246515:
± gives the standard deviation of the averaged measurements.

Assay: total protein half-life in vivo (active degradation + dilution); higher = more stable protein
[1] = E. coli NCM3722 delta-clpP delta-lon delta-hslV, growth: N-lim chemostat, doubling time 6 h
[2] = E. coli NCM3722 delta-clpP, growth: N-lim chemostat, doubling time 6 h
[3] = E. coli NCM3722 delta-hslV, growth: N-lim chemostat, doubling time 6 h
[4] = E. coli NCM3722 delta-lon, growth: N-lim chemostat, doubling time 6 h
[5] = E. coli NCM3722 delta-smpB, growth: N-lim chemostat, doubling time 6 h
[6] = wild type E. coli NCM3722, growth: C-lim chemostat, doubling time 3 h
[7] = wild type E. coli NCM3722, growth: C-lim chemostat, doubling time 6 h
[8] = wild type E. coli NCM3722, growth: C-lim chemostat, doubling time 12 h
[9] = wild type E. coli NCM3722, growth: N-lim chemostat, doubling time 6 h
[10] = wild type E. coli NCM3722, growth: P-lim chemostat, doubling time 6 h
[11] = wild type E. coli NCM3722, growth: P-lim chemostat, doubling time 12 h
[12] = wild type E. coli NCM3722, growth: N-lim chemostat, doubling time 12 h

Sequence	total protein half-life in vivo [1]	total protein half-life in vivo [2]	total protein half-life in vivo [3]	total protein half-life in vivo [4]	total protein half-life in vivo [5]	total protein half-life in vivo [6]	total protein half-life in vivo [7]	total protein half-life in vivo [8]	total protein half-life in vivo [9]	total protein half-life in vivo [10]	total protein half-life in vivo [11]	total protein half-life in vivo [12]
MSETASWQPSASIPNLLKRAAIMAEIRRFFADRGVLEVETPCMSQATVTDIHLVPFETRFVGPGHSQGMNLWLMTSPEYHMKRLLVAGCGPVFQLCRSFRNEEMGRYHNPEFTMLEWYRPHYDMYRLMNEVDDLLQQVLDCPAAESLSYQQAFLRYLEIDPLSADKTQLREVAAKLDLSNVADTEEDRDTLLQLLFTFGVEPNIGKEKPTFVYHFPASQASLAQISTEDHRVAERFEVYYKGIELANGFHELTDAREQQQRFEQDNRKRAARGLPQHPIDQNLIEALKVGMPDCSGVALGVDRLVMLALGAETLAEVIAFSVDRA [P0A8N7]	5.63 h	4.37 h	3.95 h	3.35 h	3.93 ± 0.61 h	2.71 ± 0.4 h	6.14 h	9.92 h	3.34 h	6.35 ± 0.51 h	14.41 ± 0.11 h	–
MSEYRRYYIKGGTWFFTVNLRNRRSQLLTTQYQMLRHAIIKVKRDRPFEINAWVVLPEHMHCIWTLPEGDDDFSSRWREIKKQFTHACGLKNIWQPRFWEHAIRNTKDYRHHVDYIYINPVKHGWVKQVSDWPFSTFHRDVARGLYPIDWAGDVTDFSAGERIIS	5.68 h	–	–	–	–	1.93 h	–	–	–	–	–	–
MSFDSLGLSPDILRAVAEQGYREPTPIQQQAIPAVLEGRDLMASAQTGTGKTAGFTLPLLQHLITRQPHAKGRRPVRALILTPTRELAAQIGENVRDYSKYLNIRSLVVFGGVSINPQMMKLRGGVDVLVATPGRLLDLEHQNAVKLDQVEILVLDEADRMLDMGFIHDIRRVLTKLPAKRQNLLFSATFSDDIKALAEKLLHNPLEIEVARRNTASDQVTQHVHFVDKKRKRELLSHMIGKGNWQQVLVFTRTKHGANHLAEQLNKDGIRSAAIHGNKSQGARTRALADFKSGDIRVLVATDIAARGLDIEELPHVVNYELPNVPEDYVHRIGRTGRAAATGEALSLVCVDEHKLLRDIEKLLKKEIPRIAIPGYEPDPSIKAEPIQNGRQQRGGGGRGQGGGRGQQQPRRGEGGAKSASAKPAEKPSRRLGDAKPAGEQQRRRRPRKPAAAQ	4.67 ± 1.2 h	5.49 ± 0.3 h	5.007 ± 0.03 h	5.23 ± 1.5 h	4.98 ± 0.23 h	3.12 h	7.2 h	14.7 ± 0.98 h	5.3 ± 0.071 h	4.83 ± 0.43 h	9.31 ± 0.65 h	8.71 ± 0.062 h
MSFFISDAVAATGAPAQGSPMSLILMLVVFGLIFYFMILRPQQKRTKEHKKLMDSIAKGDEVLTNGGLVGRVTKVAENGYIAIALNDTTEVVIKRDFVAAVLPKGTMKAL [P0ADZ7]	5.95 ± 0.52 h	6.69 ± 0.75 h	5.78 ± 0.33 h	5.892 ± 0.037 h	6.28 ± 0.31 h	3.16 ± 0.14 h	6.018 ± 0.04 h	11.5 ± 0.56 h	5.64 ± 0.49 h	6.55 ± 0.62 h	13 ± 0.39 h	12.8 ± 2 h
MSFSVQETLFSLLQHNAISGHENAVADVMLCEFRRQAKEVWRDRLGNVVARYGSDKPDALRLMIFAHMDEVGFMVRKIEPSGFLRFERVGGPAQVTMAGSIVTLTGDKGPVMGCIGIKSYHFAKGDERTQSPSVDKLWIDIGAKDKDDAIRMGIQVGTPVTLYNPPQLLANDLVCSKALDDRLGCTALLGVADAISTMELDIAVYLVASVQEEFNIRGIVPVLRRVKPDLAIGIDITPSCDTPDLHDYSEVRINQGVGITCLNYHGRGTLAGLITPPRLIRMLEQTALEHNIPVQREVAPGVITETGYIQVEQDGIPCASLSIPCRYTHSPAEVASLRDLTDCIRLLTALAGMSAAHFPVEPDSGTTQEAHPL	> 8 h	–	–	–	–	3.05 ± 0.28 h	6.24 ± 0.29 h	10.9 ± 0.36 h	–	–	10.2 h	–
MSGAFNNDGRGISPLIATSWERCNKLMKRETWNVPHQAQGVTFASIYRRKKAMLTLGQAALEDAWEYMAPRECALFILDETACILSRNGDPQTLQQLSALGFNDGTYCAEGIIGTCALSLAAISGQAVKTMADQHFKQVLWNWAFCATPLFDSKGRLTGTIALACPVEQTTAADLPLTLAIAREVGNLLLTDSLLAETNRHLNQLNALLESMDDGVISWDEQGNLQFINAQAARVLRLDATASQGRAITELLTLPAVLQQAIKQAHPLKHVEATFESQHQFIDAVITLKPIIETQGTSFILLLHPVEQMRQLMTSQLGKVSHTFAHMPQDDPQTRRLIHFGRQAARSSFPVLLCGEEGVGKALLSQAIHNESERAAGPYIAVNCELYGDAALAEEFIGGDRTDNENGRLSRLELAHGGTLFLEKIEYLAVELQSALLQVIKQGVITRLDARRLIPIDVKVIATTTADLAMLVEQNRFSRQLYYALHAFEITIPPLRMRRGSIPALVNNKLRSLEKRFSTRLKIDDDALARLVSCAWPGNDFELYSVIENLALSSDNGRIRVSDLPEHLFTEQATDDVSATRLSTSLSFAEVEKEAIINAAQVTGGRIQEMSALLGIGRTTLWRKMKQHGIDAGQFKRRV	6.1 ± 0.41 h	4.96 h	3.96 h	–	4.08 ± 0.059 h	2.56 ± 0.055 h	4.31 ± 1 h	9.42 ± 0.77 h	4.53 ± 0.17 h	4.11 ± 0.61 h	7.3 ± 0.38 h	8.2 ± 0.45 h
MSGDILQTPDAPKPQGALDNYFKITARGSTVRQEVLAGLTTFLAMVYSVIVVPGMLGKAGFPPAAVFVATCLVAGFGSLLMGLWANLPMAIGCAISLTAFTAFSLVLGQQISVPVALGAVFLMGVIFTAISVTGVRTWILRNLPMGIAHGTGIGIGLFLLLIAANGVGMVIKNPIEGLPVALGAFTSFPVMMSLLGLAVIFGLEKCRVPGGILLVIIAISIIGLIFDPAVKYHGLVAMPSLTGEDGKSLIFSLDIMGALQPTVLPSVLALVMTAVFDATGTIRAVAGQANLLDKDNQIINGGKALTSDSVSSIFSGLVGAAPAAVYIESAAGTAAGGKTGLTATVVGALFLLILFLSPLSFLIPGYATAPALMYVGLLMLSNVSKLDFNDFIDAMAGLVCAVFIVLTCNIVTGIMLGFVTLVVGRVFAREWQKLNIGTVIITAALVAFYAGGWAI	4.51 ± 0.38 h	5.04 ± 0.2 h	5.05 h	4.88 h	4.98 ± 0.49 h	3.28 ± 0.56 h	4.99 ± 0.19 h	–	4.98 h	> 8 h	9.89 ± 0.52 h	9.21 ± 0.52 h
